From the supplement of paper PMC9112550, “Optimization of the antimicrobial peptide Bac7 by deep mutational scanning” (BMC Biology, 2022) come the findings set out here.
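Note: peptides expressed intracellularly from a pBAD plasmid library in pooled LB shake-flask culture, induced with 0.3% L-arabinose, DNA abundance read by NGS, three biological replicates, DESeq2 with apeglm shrinkage.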

The series concerns Escherichia coli TOP10. Kind of series: shrunken log2 fold change of peptide-encoding DNA abundance (4.5 h post-induction vs induction); higher = less antimicrobial activity (less host growth inhibition). Particulars: time post-induction: 4.5 h; library: site-saturation at positions 5, 18, 19, 20.
Take RRIRERPPRLPRPRPRPVYQPRP: the “shrunken log2 fold change” value was -0.0713.

Regarding RRIRERPPRLPRPRPRPPGHPRP, the “shrunken log2 fold change” value was -0.0333. To RRIRMRPPRLPRPRPRPLQGPRP belongs 0.126; to RRIRARPPRLPRPRPRPKLDPRP, 0.655; to RRIRPRPPRLPRPRPRPVDWPRP, 0.656.

Take RRIRVRPPRLPRPRPRPWDFPRP: the “shrunken log2 fold change” value is -0.0763. Regarding RRIRQRPPRLPRPRPRPDAPPRP, the “shrunken log2 fold change” value was 0.655. In the case of RRIRWRPPRLPRPRPRPPLNPRP, the “shrunken log2 fold change” value stood at 0.188.

With RRIRRRPPRLPRPRPRPCFGPRP, the “shrunken log2 fold change” value worked out at 0.0921. For RRIRTRPPRLPRPRPRPKDHPRP, the “shrunken log2 fold change” value is -0.156. To RRIRPRPPRLPRPRPRPKNRPRP belongs 0.00526. The same measure for RRIRMRPPRLPRPRPRPPWRPRP: 1.34.

With RRIRPRPPRLPRPRPRPVREPRP, the “shrunken log2 fold change” value came to 0.605.

For RRIRDRPPRLPRPRPRPGFAPRP, the “shrunken log2 fold change” value came to 0.992. Turning to RRIRFRPPRLPRPRPRPIPRPRP, the “shrunken log2 fold change” value stood at 0.365.

Turning to RRIRSRPPRLPRPRPRPMPDPRP, the “shrunken log2 fold change” value turned out to be 0.235. To RRIRGRPPRLPRPRPRPTLMPRP belongs 0.815; to RRIRERPPRLPRPRPRPGHKPRP, -0.324; to RRIRGRPPRLPRPRPRPITVPRP, -0.0412. In the case of RRIRARPPRLPRPRPRPCIHPRP, the “shrunken log2 fold change” value is -0.438. The same measure for RRIRIRPPRLPRPRPRPQYGPRP: 0.0914; for RRIRERPPRLPRPRPRPLDLPRP: -0.357.

For RRIRPRPPRLPRPRPRPPDQPRP, the “shrunken log2 fold change” value worked out at 0.601. To RRIRARPPRLPRPRPRPFEDPRP belongs 0.0795; to RRIRCRPPRLPRPRPRPWAVPRP, 0.0183; to RRIRKRPPRLPRPRPRPTIPPRP, 0.263. As to RRIRYRPPRLPRPRPRPQQEPRP, the “shrunken log2 fold change” value was -0.0075.

On to RRIRRRPPRLPRPRPRPGPYPRP, for which the “shrunken log2 fold change” value worked out at 0.18. The same measure for RRIRQRPPRLPRPRPRPKEGPRP: -0.0167; for RRIRARPPRLPRPRPRPDRFPRP: 0.414. The same measure for RRIRTRPPRLPRPRPRPNAIPRP: -0.797. Regarding RRIRTRPPRLPRPRPRPYWMPRP, the “shrunken log2 fold change” value is -0.707.

RRIRYRPPRLPRPRPRPYFFPRP: the “shrunken log2 fold change” value was -0.792.

As for RRIRDRPPRLPRPRPRPRGMPRP, the “shrunken log2 fold change” value amounted to 0.0251. To RRIRERPPRLPRPRPRPYIWPRP belongs 0.0553; to RRIRERPPRLPRPRPRPWWTPRP, -0.0694; to RRIRNRPPRLPRPRPRPLQMPRP, -0.0999. Consider RRIRNRPPRLPRPRPRPGADPRP, for which the “shrunken log2 fold change” value was 0.0958.

As for RRIRRRPPRLPRPRPRPSLKPRP, the “shrunken log2 fold change” value came out at 0.108. The same measure for RRIRVRPPRLPRPRPRPEGSPRP: 0.464; for RRIRVRPPRLPRPRPRPDWEPRP: 0.00682.

Regarding RRIRLRPPRLPRPRPRPWTSPRP, the “shrunken log2 fold change” value was -0.384. The same measure for RRIRRRPPRLPRPRPRPEMLPRP: 0.0638; for RRIRARPPRLPRPRPRPLSWPRP: 0.984.

For the sequence RRIRCRPPRLPRPRPRPLCYPRP, the “shrunken log2 fold change” value was -0.439. As to RRIRFRPPRLPRPRPRPTFKPRP, the “shrunken log2 fold change” value was 0.0617. To RRIRERPPRLPRPRPRPMGHPRP belongs -0.298; to RRIRCRPPRLPRPRPRPWYWPRP, -0.286.

For RRIRVRPPRLPRPRPRPHQTPRP, the “shrunken log2 fold change” value is -0.443. Take RRIRWRPPRLPRPRPRPHEKPRP: the “shrunken log2 fold change” value was -0.00914. Take RRIRRRPPRLPRPRPRPTDQPRP: the “shrunken log2 fold change” value was 0.552. The same measure for RRIRPRPPRLPRPRPRPCIRPRP: -0.14.

With RRIRLRPPRLPRPRPRPQGNPRP, the “shrunken log2 fold change” value was -0.0463. With RRIRNRPPRLPRPRPRPNQEPRP, the “shrunken log2 fold change” value was -0.0316. The same measure for RRIRERPPRLPRPRPRPNIYPRP: -0.538; for RRIRHRPPRLPRPRPRPSISPRP: -0.727; for RRIRWRPPRLPRPRPRPYQQPRP: -0.0018. On to RRIRERPPRLPRPRPRPNLGPRP, for which the “shrunken log2 fold change” value is -0.161.

As to RRIRSRPPRLPRPRPRPICYPRP, the “shrunken log2 fold change” value was -0.475. Take RRIRDRPPRLPRPRPRPALMPRP: the “shrunken log2 fold change” value was 0.333. The same measure for RRIRGRPPRLPRPRPRPMPHPRP: 0.523; for RRIRGRPPRLPRPRPRPFHIPRP: -0.14.

For the sequence RRIRMRPPRLPRPRPRPSFWPRP, the “shrunken log2 fold change” value was 0.459. Take RRIRVRPPRLPRPRPRPPKPPRP: the “shrunken log2 fold change” value was 0.107.

As to RRIRLRPPRLPRPRPRPLWVPRP, the “shrunken log2 fold change” value came out at 0.0349. For RRIRFRPPRLPRPRPRPNEDPRP, the “shrunken log2 fold change” value amounted to 0.144. The same measure for RRIRYRPPRLPRPRPRPDDSPRP: 0.00262; for RRIRYRPPRLPRPRPRPLYYPRP: -1.44.

On to RRIRHRPPRLPRPRPRPCWEPRP, for which the “shrunken log2 fold change” value was found to be 0.153. The same measure for RRIRYRPPRLPRPRPRPAPEPRP: 0.134; for RRIRWRPPRLPRPRPRPPKPPRP: 0.648; for RRIRMRPPRLPRPRPRPGRCPRP: 1.02. To RRIRSRPPRLPRPRPRPRTHPRP belongs 0.181. To RRIRERPPRLPRPRPRPDMNPRP belongs -0.00248; to RRIRKRPPRLPRPRPRPIGCPRP, -0.000243.

With RRIRERPPRLPRPRPRPHRFPRP, the “shrunken log2 fold change” value is -0.169. The same measure for RRIRIRPPRLPRPRPRPHIVPRP: -0.0875; for RRIRFRPPRLPRPRPRPQGKPRP: -0.227.

Take RRIRLRPPRLPRPRPRPEWSPRP: the “shrunken log2 fold change” value is -0.178. To RRIRIRPPRLPRPRPRPQPKPRP belongs -0.0343; to RRIRFRPPRLPRPRPRPRKEPRP, -0.0425; to RRIRSRPPRLPRPRPRPDTIPRP, -1.3. For the sequence RRIRVRPPRLPRPRPRPRASPRP, the “shrunken log2 fold change” value came to 0.281. The same measure for RRIRDRPPRLPRPRPRPWSCPRP: -0.188; for RRIRCRPPRLPRPRPRPVINPRP: -0.116. The same measure for RRIRARPPRLPRPRPRPAWKPRP: 0.398; for RRIRQRPPRLPRPRPRPLQNPRP: 0.139.

On to RRIRERPPRLPRPRPRPMQSPRP, for which the “shrunken log2 fold change” value turned out to be 0.0874. RRIRARPPRLPRPRPRPYGQPRP: the “shrunken log2 fold change” value is -0.163. To RRIRNRPPRLPRPRPRPAEHPRP belongs -0.201; to RRIRLRPPRLPRPRPRPKSDPRP, 0.00855. In the case of RRIRARPPRLPRPRPRPDHHPRP, the “shrunken log2 fold change” value is -0.201.

For the sequence RRIRQRPPRLPRPRPRPMTMPRP, the “shrunken log2 fold change” value is -0.243. Consider RRIRERPPRLPRPRPRPCSYPRP, for which the “shrunken log2 fold change” value is -0.0141. For RRIRQRPPRLPRPRPRPMMIPRP, the “shrunken log2 fold change” value was -0.0862. Consider RRIRARPPRLPRPRPRPDLAPRP, for which the “shrunken log2 fold change” value worked out at 1.07. For RRIRYRPPRLPRPRPRPNFWPRP, the “shrunken log2 fold change” value stood at 0.293. RRIRERPPRLPRPRPRPLVWPRP: the “shrunken log2 fold change” value turned out to be 0.339. To RRIRNRPPRLPRPRPRPDNEPRP belongs 0.114; to RRIRVRPPRLPRPRPRPMIYPRP, -0.38. To RRIRKRPPRLPRPRPRPRFQPRP belongs -0.00313; to RRIRGRPPRLPRPRPRPAMYPRP, 0.369. In the case of RRIRSRPPRLPRPRPRPMWVPRP, the “shrunken log2 fold change” value was -0.0635. On to RRIRVRPPRLPRPRPRPLRMPRP, for which the “shrunken log2 fold change” value came out at 0.191.

RRIRIRPPRLPRPRPRPTVRPRP: the “shrunken log2 fold change” value stood at 0.158. For the sequence RRIRARPPRLPRPRPRPNLPPRP, the “shrunken log2 fold change” value was 0.158.

Consider RRIRIRPPRLPRPRPRPKCHPRP, for which the “shrunken log2 fold change” value is -0.199. The same measure for RRIRRRPPRLPRPRPRPKRHPRP: 0.227; for RRIRARPPRLPRPRPRPEMIPRP: 0.0273; for RRIRERPPRLPRPRPRPCKSPRP: -0.0225. To RRIRVRPPRLPRPRPRPWPAPRP belongs -0.0676; to RRIRIRPPRLPRPRPRPYYFPRP, -1.16. As for RRIRLRPPRLPRPRPRPGRQPRP, the “shrunken log2 fold change” value worked out at 0.207. As to RRIRPRPPRLPRPRPRPGLDPRP, the “shrunken log2 fold change” value was 0.0198. On to RRIRVRPPRLPRPRPRPPELPRP, for which the “shrunken log2 fold change” value worked out at 0.186. The same measure for RRIRMRPPRLPRPRPRPMKCPRP: 0.0208; for RRIRFRPPRLPRPRPRPWGHPRP: -0.000438. The same measure for RRIRHRPPRLPRPRPRPYEKPRP: -0.195; for RRIRVRPPRLPRPRPRPHNPPRP: -0.272; for RRIRQRPPRLPRPRPRPGDEPRP: 0.021. To RRIRCRPPRLPRPRPRPDELPRP belongs -0.044; to RRIRLRPPRLPRPRPRPPMWPRP, 0.26; to RRIRYRPPRLPRPRPRPYICPRP, -0.234. For the sequence RRIRCRPPRLPRPRPRPHNVPRP, the “shrunken log2 fold change” value is -0.194. To RRIRLRPPRLPRPRPRPCDKPRP belongs -0.304.
